The results in this text go back to FireProtDB (doi:10.1021/bi00123a006).

First the molecules themselves.
B1: Ribonuclease, P00648 (parent)
chain: MMKMEGIALKKRLSWISVCLLVLVSAAGMLFSTAAKTETSSHKAHTEAQVINTFDGVADYLQTYHKLPDNYITKSEAQALGWVASKGNLADVAPGKSIGGDIFSNREGKLPGKSGRTWREADINYTSGFRNSDRILYSSDWLIYKTTDHYQTFTKIR

Variants of B1 are the subject of the data set. The settings on record: Bacillus amyloliquefaciens, 25 °C, Urea, NMR, NaCl 1 M, structure 1BNI, whole UniProt chain shown.

For the variant T73H D101N, the “ddG of mutation (higher = less stable)” value is, setting by setting: (pH 4.4, Sodium acetate 30 mM) 5.74 kcal/mol; (pH 8.9, Tris 30 mM) 4.27 kcal/mol. The unfolding free energy (pH 4.4, Sodium acetate 30 mM) came out at 2.39 kcal/mol and the unfolding free energy (pH 8.9, Tris 30 mM) was 3.78 kcal/mol.

For the variant W141L, the unfolding free energy (pH 5.9, MES 30 mM) amounted to 7.67 kcal/mol. Further, under “pH 8.9, Tris 30 mM”, the “ddG of mutation (higher = less stable)” value came out at 0.64 kcal/mol and the unfolding free energy came to 7.41 kcal/mol.

As for D101N, where the note is “pH 4.4, Sodium acetate 30 mM”, the “ddG of mutation (higher = less stable)” value came out at 2.65 kcal/mol and the unfolding free energy turned out to be 5.48 kcal/mol. Also, where the note is “pH 8.9, Tris 30 mM”, the “ddG of mutation (higher = less stable)” value was 2.32 kcal/mol and the unfolding free energy turned out to be 5.73 kcal/mol.

As to T53H, the “ddG of mutation (higher = less stable)” value is, setting by setting: (pH 4.4, Sodium acetate 30 mM) 2.65 kcal/mol; (pH 8.9, Tris 30 mM) 1.56 kcal/mol. Also, the unfolding free energy (pH 4.4, Sodium acetate 30 mM) turned out to be 5.48 kcal/mol and the unfolding free energy (pH 8.9, Tris 30 mM) was found to be 6.49 kcal/mol.

For H65G W141L, the unfolding free energy is, setting by setting: (pH 5.9, MES 30 mM) 8.11 kcal/mol; (pH 8.9, Tris 30 mM) 8.38 kcal/mol. Moreover, the “ddG of mutation (higher = less stable)” value (pH 8.9, Tris 30 mM) was -0.33 kcal/mol.

With G81H, for the setting “pH 4.4, Sodium acetate 30 mM”, the “ddG of mutation (higher = less stable)” value came out at 2.6 kcal/mol and the unfolding free energy stood at 5.53 kcal/mol. Moreover, where the note is “pH 8.9, Tris 30 mM”, the “ddG of mutation (higher = less stable)” value turned out to be 3.15 kcal/mol and the unfolding free energy was 4.9 kcal/mol.
